Reference: article PMC12250083 (International Journal of Molecular Sciences, 2025)
Where a chain is given by its changes, count along the chain named.

T1: Xanthobacter autotrophicus acetone carboxylase α subunit (Xanthobacter autotrophicus, UniProt Q8RM03 1-776)
T1 construct: acetone carboxylase alpha subunit, Xanthobacter autotrophicus; holds the Mn(II) site (H150, D153, H175, E89); A His-NTA column was used, so one subunit probably carries a His tag; also called XaAC α; AC alpha subunit; source: E. coli, purified as the complex (His-NTA, Q-sepharose)
T1 sequence: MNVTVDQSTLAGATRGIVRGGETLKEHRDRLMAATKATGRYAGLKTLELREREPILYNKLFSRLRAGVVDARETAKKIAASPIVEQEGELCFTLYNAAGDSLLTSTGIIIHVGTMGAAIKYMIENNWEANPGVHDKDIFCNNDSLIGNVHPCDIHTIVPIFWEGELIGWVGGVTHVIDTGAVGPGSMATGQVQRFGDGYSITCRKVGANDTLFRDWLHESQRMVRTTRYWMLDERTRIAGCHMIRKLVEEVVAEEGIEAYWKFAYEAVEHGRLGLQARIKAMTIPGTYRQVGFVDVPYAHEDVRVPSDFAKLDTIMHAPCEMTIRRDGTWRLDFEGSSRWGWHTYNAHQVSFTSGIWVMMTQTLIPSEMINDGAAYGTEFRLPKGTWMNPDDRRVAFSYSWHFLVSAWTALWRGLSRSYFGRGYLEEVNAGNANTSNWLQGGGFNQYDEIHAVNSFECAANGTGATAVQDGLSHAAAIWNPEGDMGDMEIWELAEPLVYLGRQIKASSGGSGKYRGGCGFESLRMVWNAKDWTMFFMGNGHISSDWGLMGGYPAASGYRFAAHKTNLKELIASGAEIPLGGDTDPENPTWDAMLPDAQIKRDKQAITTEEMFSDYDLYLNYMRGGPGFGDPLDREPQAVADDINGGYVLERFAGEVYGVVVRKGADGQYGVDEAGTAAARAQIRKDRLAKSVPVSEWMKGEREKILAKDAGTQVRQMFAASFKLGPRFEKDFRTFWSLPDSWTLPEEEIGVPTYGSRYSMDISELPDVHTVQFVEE

T2: Xanthobacter autotrophicus acetone carboxylase α subunit, αE89A variant (Xanthobacter autotrophicus, UniProt Q8RM03 1-776, αE89A)
T2 construct: acetone carboxylase alpha subunit, Xanthobacter autotrophicus, glutamate 89 substituted by alanine; The PDB entries are of the wild-type parent; also called E89A XaAC; E89A AC; source: E. coli, purified as the complex (His-NTA, Q-sepharose)
T2 sequence: T1 sequence with E89A

T3: Xanthobacter autotrophicus acetone carboxylase α subunit, αE89D variant (Xanthobacter autotrophicus, UniProt Q8RM03 1-776, αE89D)
T3 construct: acetone carboxylase alpha subunit, Xanthobacter autotrophicus, glutamate 89 substituted by aspartate; The PDB entries are of the wild-type parent; also called E89D XaAC; E89D AC; source: E. coli, purified as the complex (His-NTA, Q-sepharose)
T3 sequence: T1 sequence with E89D

B1: Xanthobacter autotrophicus acetone carboxylase β subunit (enzyme)
chain: MNVPVGHLRNVQVLGIDAGGTMTDTFFVDQDGDFVVGKAQSTPQNEALGLIASSEDGLANWGMSLHEALAQLQTGVYSGTAMLNRVVQRKGLKCGLIVNRGMEDFHRMGRAVQSHLGYAYEDRIHLNTHRYDPPLVPRHLTRGVVERTDMIGTQVIPLREDTARDAARDLIAADAEGIVISLLHSYKNPENERRVRDIVLEEVEKSGKKIPVFASADYYPVRKETHRTNTTILEGYAAEPSRQTLSKISNAFKERGTKFDFRVMATHGGTISWKAKELARTIVSGPIGGVIGAKYLGEVLGYKNIACSDIGGTSFDVALITQGEMTIKNDPDMARLVLSLPLVAMDSVGAGAGSFIRLDPYTRAIKLGPDSAGYRVGVCWKESGIETVTISDCHMVLGYLNPDNFLGGAVKLDRQRSVDAIKAQIADPLGLSVEDAAAGVIELLDSDLRDYLRSMISGKGYSPASFVCFSYGGAGPVHTYGYTEGLGFEDVIVPAWAAGFSAFGCAAADFEYRYDKSLDINMPTETPDTDKEKAAATLQAAWEELTKNVLEEFKLNGYSADQVTLQPGYRMQYRGQLNDLEIESPLAQAHTAADWDQLTDAFNATYGRVYAASARSPELGYSVTGAIMRGMVPIPKPKIPKEPEEGETPPESAKIGTRKFYRKKRWVDAQLYHMESLRPGNRVMGPAVIESDATTFVVPDGFETWLDGHRLFHLREV
notes: acetone carboxylase beta subunit, Xanthobacter autotrophicus; also called XaAC β; AC beta subunit; source: E. coli, purified as the complex (His-NTA, Q-sepharose)
B2: Xanthobacter autotrophicus acetone carboxylase γ subunit (enzyme)
chain: MAYTRSKIVDLVDGKIDPDTLHQMLSTPKDPERFVTYVEILQERMPWDDKIILPLGPKLFIVQQKVSKKWTVRCECGHDFCDWKDNWKLSARVHVRDTPQKMEEIYPRLMAPTPSWQVIREYFCPECGTLHDVEAPTPWYPVIHDFSPDIEGFYQEWLGLPVPERADA
notes: acetone carboxylase gamma subunit, Xanthobacter autotrophicus; also called XaAC γ; AC gamma subunit; source: E. coli, purified as the complex (His-NTA, Q-sepharose)

Assays:
[1] = target: T4, acetone carboxylase (XaAC) (Xanthobacter versatilis, UniProt Q8RM03+Q8RM04, Q8RM03:E89A); assay: differential scanning fluorimetry, SYPRO orange; assay type: binding; conditions: 10 mM AMP; 100 mM Tris, 100 mM KCl, pH 7.6; absolute Tm, not a shift
T4 construct: gene acxA; recombinant from E. coli, His-NTA then Q-sepharose; 360 kDa α2β2γ2 heterohexamer with Mn(II); ATP/AMP site in beta subunit, Mn(II) site in alpha subunit; with Acetone carboxylase gamma subunit

[2] = target: T5, acetone carboxylase (XaAC) (Xanthobacter versatilis, UniProt Q8RM03+Q8RM04, Q8RM03:E89D); assay: X-band EPR of active-site Mn(II); assay type: binding; conditions: 10 mM AMP, 1 mM MgCl2; 50 mM Tris, pH 7.6, 150 mM NaCl; 12 K
T5 construct: gene acxA; recombinant from E. coli, His-NTA then Q-sepharose; 360 kDa α2β2γ2 heterohexamer with Mn(II); ATP/AMP site in beta subunit, Mn(II) site in alpha subunit; with Acetone carboxylase gamma subunit

[3] = target: T6, acetone carboxylase (XaAC) (Xanthobacter versatilis, UniProt Q8RM03+Q8RM04); assay: differential scanning fluorimetry, SYPRO orange; assay type: binding; set-up: gene acxA; recombinant from E. coli, His-NTA then Q-sepharose; 360 kDa α2β2γ2 heterohexamer with Mn(II); ATP/AMP site in beta subunit, Mn(II) site in alpha subunit; with Acetone carboxylase gamma subunit; conditions: 10 mM AMP; 100 mM Tris, 100 mM KCl, pH 7.6; absolute Tm, not a shift
[4] = target: T6, acetone carboxylase (XaAC); set-up: gene acxA; conditions: only tested together with AMP (10 mM AMP-acetate), 1 mM MgCl2, pH 7.6; Mn(II) site
[5] = target: T1, Xanthobacter autotrophicus acetone …; assay: SEC + native gel or EMSA; complexes co-purified from E. coli lysate (His-NTA, then Q-sepharose), stored in 50 mM Tris pH 7.6, 150 mM NaCl, 10% glycerol, then tested by size exclusion chromatography and native gel for integrity; conditions: both partners purified
[6] = target: T2, Xanthobacter autotrophicus acetone …; assay: as above; conditions: both partners purified
[7] = target: T3, Xanthobacter autotrophicus acetone …; assay: as above; conditions: both partners purified

T5 sequence (Q8RM03 whole entry E89D, one chain of several): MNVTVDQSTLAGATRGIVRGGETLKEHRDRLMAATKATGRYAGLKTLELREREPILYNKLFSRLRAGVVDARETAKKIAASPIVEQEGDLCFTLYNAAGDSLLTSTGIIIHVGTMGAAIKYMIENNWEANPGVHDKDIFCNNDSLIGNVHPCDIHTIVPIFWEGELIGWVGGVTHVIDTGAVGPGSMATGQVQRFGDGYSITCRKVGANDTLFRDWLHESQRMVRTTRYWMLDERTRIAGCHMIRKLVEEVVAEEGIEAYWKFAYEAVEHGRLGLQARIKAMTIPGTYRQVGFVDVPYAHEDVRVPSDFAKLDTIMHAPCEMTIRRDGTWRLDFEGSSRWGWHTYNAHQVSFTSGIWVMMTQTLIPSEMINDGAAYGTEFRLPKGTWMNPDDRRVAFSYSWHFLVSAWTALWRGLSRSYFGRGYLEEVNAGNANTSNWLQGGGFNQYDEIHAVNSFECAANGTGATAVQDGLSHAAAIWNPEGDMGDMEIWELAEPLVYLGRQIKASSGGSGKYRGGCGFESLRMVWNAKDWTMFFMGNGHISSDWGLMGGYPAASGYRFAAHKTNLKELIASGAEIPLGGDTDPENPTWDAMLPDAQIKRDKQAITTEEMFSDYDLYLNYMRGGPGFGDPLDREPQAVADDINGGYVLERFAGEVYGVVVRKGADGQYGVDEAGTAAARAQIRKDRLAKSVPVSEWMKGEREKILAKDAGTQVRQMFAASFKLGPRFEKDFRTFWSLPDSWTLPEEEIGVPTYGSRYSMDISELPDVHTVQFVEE
T4 sequence (Q8RM03 whole entry E89A, one chain of several): as the sequence (Q8RM03 whole entry E89D, one chain of several) above, with D89A counted along it

Molecule | Tm [1] | X-band EPR of active-site Mn(II) [2] | Tm [3] | peptide-level and intact-protein HDX-MS [4] | binding result [5] | binding result [6] | binding result [7]
Nc1ncnc2c1ncn2[C@@H]1O[C@H](COP(=O)(O)O)[C@@H](O)[C@H]1O [AMP] | 76 ± 0.4 °C | αE89D and the WT AC respond similarly to AMP binding | 76.5 ± 0.5 °C |  |  |  | 
CC(=O)O [acetate] |  |  |  | when AMP and acetate were both present, seven of the eight peptides displayed opposite exchange patterns |  |  | 
B1 |  |  |  |  | binds | binds | binds
B2 |  |  |  |  | binds | binds | binds
